Results from US11028172 (LEPU BIOPHARMA, dated 2021).
Positions count from the first letter of the chain named.

T1: human TIGIT expressed on cells (human, UniProt Q495A1 22-244)
T1 sequence (looked up): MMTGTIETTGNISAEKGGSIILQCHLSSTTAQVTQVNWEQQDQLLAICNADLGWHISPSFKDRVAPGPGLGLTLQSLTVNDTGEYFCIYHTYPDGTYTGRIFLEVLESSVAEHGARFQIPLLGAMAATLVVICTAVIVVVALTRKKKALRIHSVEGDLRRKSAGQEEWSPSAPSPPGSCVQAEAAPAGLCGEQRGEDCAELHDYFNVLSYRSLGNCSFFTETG

T2: human TIGIT-His protein (human, UniProt Q495A1 22-141)
T2 construct: Recombinant protein; also called human TIGIT-his tag; hTIGIT-His
T2 sequence (looked up): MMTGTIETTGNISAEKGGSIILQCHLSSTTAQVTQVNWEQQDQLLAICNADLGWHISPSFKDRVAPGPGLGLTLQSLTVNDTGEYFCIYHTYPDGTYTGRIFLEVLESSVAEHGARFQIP

T3: biotin-labeled human TIGIT protein (human, UniProt Q495A1 22-141, biotin-labeled (sites not given))
T3 construct: also called recombinant human TIGIT
T3 sequence (looked up): T2 sequence (looked up)

B1: 76D12B10-Hu06 (antibody, V domains shown)
VH: EVQLQESGPGLVKPSETLSLTCAVSGYSISSGYDWHWIRQPPGKGLEWIGFIRDSGSTVYNPSLKGRVTISHDTSKNQFSLKLSSVTAADTAVYYCARGLFWYFDVWGQGTTVTVSS
VL: DIQMTQSPSSLSASVGDRVTITCRTSENIFSYLAWYQQKPGKVPKLLIHNTKTLAEGVPSRFSGSGSGTDFTLTISSLQPEDVATYYCQHHYGNPLTFGQGTKLEIK
notes: Humanized, VH.V1 + VK.V1
B2: 76D12B10-Hu02 (antibody, V domains shown)
VH: B1 VH with V68I
VL: B1 VL with H49Y
notes: Humanized, VH.V2 + VK.V0
B3: Tiragolumab (RG6058, Roche) (antibody, V domains shown)
VH: EVQLQQSGPGLVKPSQTLSLTCAISGDSVSSNSAAWNWIRQSPSRGLEWLGKTYYRFKWYSDYAVSVKGRITINPDTSKNQFSLQLNSVTPEDTAVFYCTRESTTYDLLAGPFDYWGQGTLVTVSS
VL: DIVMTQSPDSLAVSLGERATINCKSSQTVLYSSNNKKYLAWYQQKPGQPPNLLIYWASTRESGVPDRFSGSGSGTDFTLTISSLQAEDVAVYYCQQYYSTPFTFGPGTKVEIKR
B4: LP010-02 (Hu02-human IgG1 Fc) (antibody, V domains shown)
VH: B1 VH with V68I
VL: B1 VL with H49Y
B5: 76D12B10-Hu08 (antibody, V domains shown)
VH: B1 VH with I49M, V68I
VL: B1 VL
notes: Humanized, VH.V3 + VK.V1
B6: 76D12B10-Hu01 (antibody, V domains shown)
VH: B1 VH
VL: B1 VL with H49Y
notes: Humanized, VH.V1 + VK.V0
B7: 76D12B10-Hu05 (antibody, V domains shown)
VH: B1 VH with V24A, S30T, G45K, I49M, V68I, Y95F
VL: B1 VL with H49Y
notes: Humanized, VH.V5 + VK.V0
B8: 76D12B10-Hu15 (antibody, V domains shown)
VH: B1 VH with V24A, S30T, G45K, I49M, V68I, Y95F
VL: B1 VL with I48V
notes: Humanized, VH.V5 + VK.V2
B9: 76D12B10-Hu10 (antibody, V domains shown)
VH: B1 VH with V24A, S30T, G45K, I49M, V68I, Y95F
VL: B1 VL
notes: Humanized, VH.V5 + VK.V1
B10: 76D12B10-Hu04 (antibody, V domains shown)
VH: B1 VH with V24A, S30T, I49M, V68I
VL: B1 VL with H49Y
notes: Humanized, VH.V4 + VK.V0
B11: 76D12B10-Hu09 (antibody, V domains shown)
VH: B1 VH with V24A, S30T, I49M, V68I
VL: B1 VL
notes: Humanized, VH.V4 + VK.V1
B12: 76D12B10-Hu11 (antibody, V domains shown)
VH: B1 VH
VL: B1 VL with I48V
notes: Humanized, VH.V1 + VK.V2
B13: 76D12B10-Hu14 (antibody, V domains shown)
VH: B1 VH with V24A, S30T, I49M, V68I
VL: B1 VL with I48V
notes: Humanized, VH.V4 + VK.V2
B14: 76D12B10-Hu12 (antibody, V domains shown)
VH: B1 VH with V68I
VL: B1 VL with I48V
notes: Humanized, VH.V2 + VK.V2
B15: 76D12B10-Hu07 (antibody, V domains shown)
VH: B1 VH with V68I
VL: B1 VL
notes: Humanized, VH.V2 + VK.V1
B16: 76D12B10-Hu03 (antibody, V domains shown)
VH: B1 VH with I49M, V68I
VL: B1 VL with H49Y
notes: Humanized, VH.V3 + VK.V0
B17: 76D12B10-Hu13 (antibody, V domains shown)
VH: B1 VH with I49M, V68I
VL: B1 VL with I48V
notes: Humanized, VH.V3 + VK.V2

Each binder was assayed against T1, human TIGIT expressed on cells (assay: cell-based or functional assay).

| NFAT luciferase production, EC50 [nM] | Binder |
| --- | --- |
| 1.67 | B1 |
| 1.76 | B2 |

Molecular target: T1, human TIGIT expressed on cells
Assay: cell-based or functional assay
Remark: another data set of the same source

| EC50, NFAT luciferase reporter (RLU), TIGIT-CD226-NFAT effector cells with Raji-CD155 target cells [nM] | LogEC50, NFAT luciferase reporter (RLU), TIGIT-CD226-NFAT effector cells with Raji-CD155 target cells | Binder |
| --- | --- | --- |
| 2.95 | 0.47 Log[Conc.]/nM | B3 |
| 1.95 | 0.29 Log[Conc.]/nM | B4 |

The binders below were run against T2, human TIGIT-His protein (assay: SPR (Biacore) affinity ranking, human TIGIT-His).

| Kd [nM] | koff [s⁻¹] | kon [M⁻¹ s⁻¹] | Binder |
| --- | --- | --- | --- |
| 0.0192 | 9.73e-05 | 5.06e+06 | B5 |
| 0.0136 | 0.000101 | 7.43e+06 | B1 |
| 0.0701 | 0.000104 | 1.48e+06 | B6 |
| 0.0165 | 9.75e-05 | 5.92e+06 | B7 |
| 0.0135 | 0.000105 | 7.76e+06 | B8 |
| 0.0266 | 9.79e-05 | 3.68e+06 | B9 |
| 0.0191 | 9.85e-05 | 5.15e+06 | B10 |
| 0.0139 | 0.000125 | 9.01e+06 | B11 |
| 0.0255 | 9.21e-05 | 3.62e+06 | B12 |
| 0.0196 | 9.97e-05 | 5.09e+06 | B13 |
| 0.0244 | 0.00014 | 5.75e+06 | B14 |
| 0.0186 | 8.93e-05 | 4.8e+06 | B15 |
| 0.0143 | 0.00015 | 1.05e+07 | B16 |
| 0.0281 | 0.000128 | 4.54e+06 | B17 |
| 0.0196 | 9.74e-05 | 4.98e+06 | B2 |

What follows are binders tested against T1, human TIGIT expressed on cells (assay: flow cytometry (FACS) on human TIGIT overexpressing mammalian cells).
Description: (§1) To evaluate the antigen binding property, the humanized antibodies were analyzed for their binding to human TIGIT overexpressed mammalian cells by FACS. Briefly, human TIGIT cells were firstly incubated with 3-fold serious diluted humanized antibodies starting at 5 µg/ml at 4° C. for 40 mins.

| EC50 [µg/mL] | Binder |
| --- | --- |
| 0.0368 | B3 |
| 0.0328 | B4 |

The binders below were run against T3, biotin-labeled human TIGIT protein (assay: ELISA blocking assay: CD155-hFc coated, biotin-labeled human TIGIT, antibody titrated).
Description: To evaluate the blocking effects of Hu02 and Hu06 on recombinant human TIGIT to bind to its receptor CD155, an ELISA based receptor blocking assay was used.
Briefly, microtiter plates were coated with human CD155-hFc protein at 5 µg/ml in PBS, 100 µl/well at 4° C. overnight, then blocked with 150 µl/well of 1% BSA. 50 µl biotin-labeled human TIGIT protein and 3-fold dilutions of Hu02 and Hu06 antibodies starting from 10 µg/ml at 50 µl were added to each well and incubated for 1 hour at 37° C. The plates were washed with PBS/Tween and then incubated with Streptavidin-HRP for 10 mins at 37° C. After washing, the plates were developed with TMB substrate and analyzed by spectrophotometer at OD 450 nm.

| IC50 [µg/mL] | Binder |
| --- | --- |
| 0.866 | B1 |
| 0.531 | B4 |
| 1.13 | B2 |

Each binder was assayed against T2, human TIGIT-His protein (assay: SPR (Biacore T200) full kinetics, antibody captured on Protein A chip, hTIGIT-His as analyte).
Description: The binding of the humanized antibodies to recombinant TIGIT protein (human TIGIT-his tag) was tested by BIACORE™ using a capture method. Hu02 and Hu06 mAbs were captured using Protein A chip. A serial dilution of human TIGIT-his tag protein was injected over captured antibody for 2 mins at a flow rate of 30 µl/min. The antigen was allowed to dissociate for 1800 s. All the experiment were carried out on a Biacore T200.

| Kd [nM] | koff [s⁻¹] | kon [M⁻¹ s⁻¹] | Binder |
| --- | --- | --- | --- |
| 0.0416 | 7.18e-05 | 1.72e+06 | B1 |
| 0.0462 | 9.27e-05 | 2e+06 | B2 |

What follows are binders tested against T1, human TIGIT expressed on cells (assay: flow cytometry on human TIGIT overexpressing cells, Alexa Fluor 647 anti-human IgG; unit from the x axis).
Description: as §1

| LogEC50 | Binder |
| --- | --- |
| 1.57 Log[Conc.]/ng/ml | B3 |
| 1.52 Log[Conc.]/ng/ml | B4 |

Each binder was assayed against T2, human TIGIT-His protein (assay: ELISA, plate coated with human TIGIT-His, anti-human IgG-HRP, OD 450nm; unit taken from the axis Log[Conc.]/ng/ml).
Description: (§2) To evaluate the antigen binding activity, the humanized antibodies were subjected to ELISA test. Briefly, microtiter plates were coated with human TIGIT-his protein at 0.5 µg/ml in PBS, 100 µl/well at 4° C. overnight, then blocked with 150 µl/well of 1% BSA. Three-fold dilutions of humanized antibodies starting from 3 µg/ml were added to each well and incubated for 1 hour at 37° C. The plates were washed with PBS/Tween and then incubated with Goat-anti-human IgG antibody conjugated with Horse Radish Peroxidase (HRP) for 30 mins at 37° C. After washing, the plates were developed with TMB substrate and analyzed by spectrophotometer at OD 450 nm.

| EC50 [µg/mL] | Binder |
| --- | --- |
| 0.00954 | B5 |
| 0.0104 | B1 |
| 0.00989 | B6 |
| 0.0101 | B7 |
| 0.00968 | B8 |
| 0.00401 | B9 |
| 0.00996 | B10 |
| 0.00495 | B11 |
| 0.00709 | B12 |
| 0.0107 | B13 |
| 0.0111 | B14 |
| 0.0107 | B15 |
| 0.0106 | B16 |
| 0.0121 | B17 |
| 0.0103 | B2 |

Molecular target: T2, human TIGIT-His protein
Assay: as above
Remark: another data set of the same source
Description: as §2, with “Hu02 and Hu06” for “the humanized antibodies”, “0.5 hour” for “30 mins”

| EC50 [µg/mL] | Binder |
| --- | --- |
| 0.00934 | B1 |
| 0.00823 | B2 |

Molecular target: T2, human TIGIT-His protein
Assay: as above
Remark: another data set of the same source
Description: To evaluate the antigen binding activity, LP010-02 (Hu02-human IgG1 Fc) and control antibody Tiragolumab (RG6058, Roche), which contains the same IgG1 Fc, were subjected to ELISA testing. Briefly, microtiter plates were coated with human TIGIT-his protein at 0.5 µg/ml in PBS, 100 µl/well at 4° C. overnight, then blocked with 150 µl/well of 1% BSA. Three-fold dilutions of humanized antibodies starting from 3 µg/ml were added to each well and incubated for 1 hour at 37° C. The plates were washed with PBS/Tween and then incubated with Goat-anti-human IgG antibody conjugated with Horse Radish Peroxidase (HRP) for 0.5 hour at 37° C. After washing, the plates were developed with the TMB substrate and analyzed by spectrophotometer at OD 450 nm.

| EC50 [µg/mL] | Binder |
| --- | --- |
| 0.00654 | B4 |
